According to publication PMC6687201, “Atg11 tethers Atg9 vesicles to initiate selective autophagy” (PLoS Biology, 2019):
Changes are numbered by the printed parent chain. Numbers in names are those of the source.

T1: HA-tagged Atg9 (S. cerevisiae, UniProt Q12142 1-997)
T1 construct: Atg9, transmembrane autophagy protein, yeast; also called HA-Atg9; source: yeast cells expressing HA-tagged Atg9, in lysate
T1 sequence (looked up): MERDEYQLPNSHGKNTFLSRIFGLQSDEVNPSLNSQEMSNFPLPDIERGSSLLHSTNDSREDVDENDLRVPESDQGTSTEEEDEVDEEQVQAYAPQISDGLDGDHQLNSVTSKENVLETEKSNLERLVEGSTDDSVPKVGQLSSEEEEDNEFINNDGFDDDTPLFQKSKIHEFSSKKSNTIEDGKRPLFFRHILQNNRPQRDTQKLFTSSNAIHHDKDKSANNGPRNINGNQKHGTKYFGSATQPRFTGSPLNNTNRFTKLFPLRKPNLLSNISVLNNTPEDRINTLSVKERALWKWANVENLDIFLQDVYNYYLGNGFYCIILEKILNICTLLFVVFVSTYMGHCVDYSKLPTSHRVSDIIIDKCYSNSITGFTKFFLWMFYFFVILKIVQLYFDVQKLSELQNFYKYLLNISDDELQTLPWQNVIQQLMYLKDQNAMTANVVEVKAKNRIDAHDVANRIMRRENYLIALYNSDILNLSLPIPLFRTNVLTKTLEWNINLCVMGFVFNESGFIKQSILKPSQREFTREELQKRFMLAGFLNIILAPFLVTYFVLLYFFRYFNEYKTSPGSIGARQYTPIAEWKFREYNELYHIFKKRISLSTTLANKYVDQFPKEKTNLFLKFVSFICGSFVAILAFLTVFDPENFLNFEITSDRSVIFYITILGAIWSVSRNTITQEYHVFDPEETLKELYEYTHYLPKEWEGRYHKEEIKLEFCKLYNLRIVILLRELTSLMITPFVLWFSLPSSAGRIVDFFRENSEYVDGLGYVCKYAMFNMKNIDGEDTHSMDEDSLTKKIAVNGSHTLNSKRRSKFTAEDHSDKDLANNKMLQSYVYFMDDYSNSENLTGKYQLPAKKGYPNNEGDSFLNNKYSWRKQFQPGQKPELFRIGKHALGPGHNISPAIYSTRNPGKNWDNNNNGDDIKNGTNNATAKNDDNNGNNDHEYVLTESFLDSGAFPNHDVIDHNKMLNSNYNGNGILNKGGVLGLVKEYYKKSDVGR

T2: Atg9^core reconstituted in proteoliposomes (yeast, UniProt Q12142 281-779)
T2 construct: Atg9 core, yeast; Liposomes: 20 mol% cholesterol, 10 mol% POPE, 60 mol% POPC, 10 mol% POPS; protein:lipid 1:200; also called Atg9-PLs; Atg9 vesicles; source: reconstituted in liposomes by rapid dilution
T2 sequence (looked up): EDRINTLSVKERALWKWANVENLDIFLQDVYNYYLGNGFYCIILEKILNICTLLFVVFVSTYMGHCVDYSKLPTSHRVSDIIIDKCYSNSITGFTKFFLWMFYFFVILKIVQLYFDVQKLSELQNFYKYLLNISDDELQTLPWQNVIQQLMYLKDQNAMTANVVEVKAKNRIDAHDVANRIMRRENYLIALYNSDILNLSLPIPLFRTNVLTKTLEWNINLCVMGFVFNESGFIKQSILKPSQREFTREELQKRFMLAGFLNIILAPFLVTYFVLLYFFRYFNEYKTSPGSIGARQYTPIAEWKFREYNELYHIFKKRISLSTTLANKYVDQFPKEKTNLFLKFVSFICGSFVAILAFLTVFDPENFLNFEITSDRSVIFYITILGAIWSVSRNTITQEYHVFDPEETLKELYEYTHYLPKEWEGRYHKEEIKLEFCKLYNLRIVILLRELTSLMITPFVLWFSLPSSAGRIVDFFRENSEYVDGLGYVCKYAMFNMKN

T3: recombinant purified Atg11 (Atg11-His6) (yeast, UniProt Q12527 1-1178, Atto565 label in the GUV experiments)
T3 construct: N-terminal residual glycine-proline from PreScission protease digestion; Atg11, yeast; expressed from pCoofy37-Atg11; measured molecular weight 136 kDa; also called His-tagged Atg11; Atg11^Atto565; source: E. coli BL21 (DE3), coexpressed with chaperones from pG-KJE8, purified (Ni-NTA, PreScission digestion, gel filtration); not shown: His6, C-terminal, kept
T3 sequence: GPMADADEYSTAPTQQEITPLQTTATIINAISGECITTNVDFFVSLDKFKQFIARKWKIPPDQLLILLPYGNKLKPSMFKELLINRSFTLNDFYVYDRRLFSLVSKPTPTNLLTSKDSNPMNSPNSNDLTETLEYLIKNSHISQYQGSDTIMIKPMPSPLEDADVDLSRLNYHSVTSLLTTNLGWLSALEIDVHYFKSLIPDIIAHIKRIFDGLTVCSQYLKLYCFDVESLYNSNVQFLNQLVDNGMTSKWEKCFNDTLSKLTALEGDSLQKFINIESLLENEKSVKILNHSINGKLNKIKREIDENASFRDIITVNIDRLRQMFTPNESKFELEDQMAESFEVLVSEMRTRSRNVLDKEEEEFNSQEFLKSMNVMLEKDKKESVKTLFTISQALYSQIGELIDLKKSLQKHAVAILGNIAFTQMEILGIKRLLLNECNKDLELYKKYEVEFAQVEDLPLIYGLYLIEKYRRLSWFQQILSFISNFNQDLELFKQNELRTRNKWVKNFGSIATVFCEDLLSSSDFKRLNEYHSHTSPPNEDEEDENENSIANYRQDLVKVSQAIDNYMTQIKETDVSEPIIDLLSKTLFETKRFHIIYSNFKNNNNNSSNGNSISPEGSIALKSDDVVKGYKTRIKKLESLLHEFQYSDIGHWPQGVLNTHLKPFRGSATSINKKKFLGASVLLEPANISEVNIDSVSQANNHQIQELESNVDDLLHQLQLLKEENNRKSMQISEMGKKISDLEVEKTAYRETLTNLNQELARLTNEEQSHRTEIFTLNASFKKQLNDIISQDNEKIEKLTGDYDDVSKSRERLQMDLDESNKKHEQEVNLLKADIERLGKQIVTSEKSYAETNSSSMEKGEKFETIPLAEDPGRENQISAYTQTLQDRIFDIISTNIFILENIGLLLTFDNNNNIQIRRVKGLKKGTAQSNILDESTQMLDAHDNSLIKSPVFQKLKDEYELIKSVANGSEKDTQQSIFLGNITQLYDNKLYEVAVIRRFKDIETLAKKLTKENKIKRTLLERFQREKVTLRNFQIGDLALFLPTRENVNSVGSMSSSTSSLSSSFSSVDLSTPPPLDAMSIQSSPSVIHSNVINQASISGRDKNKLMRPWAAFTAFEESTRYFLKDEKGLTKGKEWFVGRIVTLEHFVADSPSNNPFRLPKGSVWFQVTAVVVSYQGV

B1: recombinant purified Atg17 (natural protein, yeast, UniProt Q06410 1-417, looked up)
chain: MNEADVTKFVNNARKTLTDAQLLCSSANLRIVDIKKKLSSWQLSISKLNFLIVGLRQQGKFLYTILKEGIGTKLIQKQWNQAVLVVLVDEMKYWQYEITSKVQRLDGIVNELSISEKDDTDPSKLGDYISRDNVNLLNDKLKEVPVIERQIENIKLQYENMVRKVNKELIDTKLTDVTQKFQSKFGIDNLMETNVAEQFSRELTDLEKDLAEIMNSLTQHFDKTLLLQDKKIDNDEREELFKVVQGDDKELYNIFKTLHEVIDDVDKTILNLGQFLQAKIKEKTELHSEVSEIINDFNRNLEYLLIFKDISNLIDSFKNSCTQDIQTTKELCEFYDNFEESYGNLVLEAKRRKDVANRMKTILKDCEKQLQNLDAQDQEERQNFIAENGTYLPETIWPGKIDDFSSLYTLNYNVKNP
notes: Atg17, scaffolding protein of nonselective autophagy, yeast
B2: GST-tagged wild-type Atg29 (natural protein, yeast, UniProt Q12092 1-213, looked up)
chain: MIMNSTNTVVYIKVKGRRPQGFLDPPKFEWNGTKERQLWTMVSNLNYSQDQIDWQNLSKIFETPEFFLKKRTYKLFAEHLELLQLQLEKKRDLEKYSNDQVNEGMSDLIHKYTPTLQNDNLLNVSASPLTTERQDSEEVETEVTNEALQHLQTSKILNIHKKTSDSENKPNDKLDKDGINKEMECGSSDDDLSSSLSVSKSALEEALMDRLQF
notes: Atg29, yeast; also called GST-Atg29^WT; Atg29^WT
B3: GST-tagged phosphomimetic Atg29 (Atg29^SD) (natural protein, yeast, UniProt Q12092 1-213, looked up)
chain: B2 chain with S197D, S199D, S201D
notes: Atg29, yeast, phosphomimetic variant; also called GST-Atg29^SD; Atg29^(S197D, S199D, S201D); source: recombinant, purified
B4: GST-Atg31-Atg29^WT subcomplex (complex, yeast)
chain 1: MNVTVTVYDKNVKYRLEENIKNNKGPSNDDQPAYNNESKSTDGSDYAMFPTNIKYIFEDNNDELVDSSDAALTAGIDKVGDELENVIIVQLDESGSLEDITLISDQYELLSHRTNSLSLEENQMRTLSSHGDDKSNDEEEELSVDSDRFRVDSDIELDVISQFCDLSPFLRDLSLNDLIKLYVTQNEQLQMLSNSV
chain 2: B2 chain
notes: Atg31, yeast; Atg29, yeast; also called GST-tagged Atg31 (31) and Atg29^WT (29); source: recombinant, coexpressed and purified as subcomplex
B5: GST-Atg31-Atg29^SD subcomplex (complex, yeast)
chain 1: B4 chain 1
chain 2: B2 chain with S197D, S199D, S201D
notes: Atg31, yeast; Atg29, yeast, phosphomimetic variant; also called GST-tagged Atg31 (31) and Atg29^SD (29^SD); source: recombinant, coexpressed and purified as subcomplex

Legend:
HA-tagged Atg9 = target: T1, HA-tagged Atg9; experiment: co-IP; competition: purified Atg17 (0, 1, 4 μM) added to lysates of nonstarved cells; IP of Atg11-myc, HA-Atg9 detected by blot; details: one partner purified
[1] = target: T2, Atg9^core reconstituted in …; experiment: co-floatation with proteoliposomes; competition: Atg11 and Atg17 coincubated with Atg9-PLs at different stoichiometric ratios (Atg11 kept constant); floated fraction on SDS-PAGE, amounts from band intensities; details: both partners purified
[2] = target: T2, Atg9^core reconstituted in …; experiment: cell-based or functional assay
[3] = target: T3, recombinant purified Atg11 (Atg11-His6); experiment: pull-down; 10 μg recombinant GST-tagged bait coupled to Glutathione-resin, with recombinant Atg11; SDS-PAGE; details: both partners purified

Binder	molar excess of Atg17 over Atg11 for equal binding to Atg9 (HA-tagged Atg9) [fold]	molar excess of Atg17 over Atg11 for similar recovery of both [1] [fold]	hydrodynamic radius of Atg9 vesicles against control SUVs in the presence of Atg17 (dynamic light scattering; vesicle tethering) [2] [fold]	binding result [3]
B1	25	25	2	–
B2	–	–	–	binds
B3	–	–	–	binds
B4	–	–	–	binds
B5	–	–	–	binds
